Results taken from US20090068164 (published 2009).

Columns and labels:
[1] = target: LacA-Zif268 + PE1A-LacB (split beta-lactamase SEER pair) (artificial, UniProt O73693; SEQ:189-286,SEQ:1-88); assay: split beta-lactamase reassembly on cognate target
[2] = target: NGFP-Zif268 + CGFP-MBD2 (human MBD2 residues 147-215; mCpG-SEER pair) (artificial, UniProt P08046;Q9UBB5 P08046:333-419,Q9UBB5:147-215); assay: split GFP reassembly; used as reference (relative fluorescence 1) for specificity set; Zn buffer, 4 C

| Binder | binding result [1] | binding result [2] |
| --- | --- | --- |
| Zif-0-PE1A (structured_DNA) DNA: GGCGTTATTTATCGCCCACGCGGGTTTTCCCGCGTGGGCGATAAATAACGCC | binds |  |
| mCpG-Zif268 (dsDNA, 5mC at the CpG on both strands (GTAmCGTA)) DNA 1: GCGTACGTAGGACGATACGCCCACGCCACCG DNA 2: CGGTGGCGTGGGCGTATCGTCCTACGTACGC |  | binds |
